The results in this text go back to paper PMC13079917 (2026).

First the molecules themselves.
B1: SES-2 (single epitope scaffold 2) (designed binder)
chain: AVEDALKKAEAAGDEAAIARAEILLARVEEAREILANPNVDPAVGWALLAAVAPEIAALAGGSY
B2: L9 Fab (Fab, V domains shown)
VH: QVKLVESGGGVVQPGRSLRLSCEASGFIFSTYGMHWVRQAPGKGLEWVAVIWFDGSNIYYADSVKGRFTISRDNSKNTVFMQMDSLRAEDTAVYYCHRNFYDGSGPFDYWGQGTLVTVSS
VL: DIQMTQSPSTLSASVGDRVTITCRASQFISRWLAWYQQKPGKAPKLLIYKASSLESGVPSRFSGSGSETHFTLTISSLQPDDVATYYCQEYTSYGRTFGQGTKVEIK

Holding throughout (test): SPR
In general terms: In SPR one partner is held on a chip, and binding of the other changes the refractive index at the surface.

The target in test [1] is B2.
Test [2] addresses B2. The source holds these as a separate data set.
In test [3] the target is SES-1.
Test [4] concerns the target SES-1. This is another data set of the same source.

Values joined by “and” are separate entries in the source; they are usually repeats but may differ in a detail not shown here. Equal entries are not always repeated. Where two headings read alike, the source gives them in different places.

B1 returned a dissociation rate constant (koff) in test [1] of 0.014 s⁻¹. Also, binding in test [2] was put at a Kd of 42 nM.

B2: the Kd was 78 nM and 84 nM in test [3]; 78 nM in test [4].

The koff is the rate constant with which the complex falls apart. The low end stands for a long-lived complex, the high end for a short-lived complex. The term Kd denotes the concentration at which binding is half-saturated. Higher therefore signals lower affinity.
